# Test results published in patent US20240262906A1 (WELLMARKER BIO, published 2024).
# T1: IGSF1 overexpressed on cells (NCI-H292 IGSF1 O/E; HEK293E IGSF1 O/E) (human, UniProt Q8N6C5 581-1336)
# T1 construct: Membrane protein expressed from a commercial vector (OriGene RC209621); also called IGSF1 antigen in cells
# T1 sequence: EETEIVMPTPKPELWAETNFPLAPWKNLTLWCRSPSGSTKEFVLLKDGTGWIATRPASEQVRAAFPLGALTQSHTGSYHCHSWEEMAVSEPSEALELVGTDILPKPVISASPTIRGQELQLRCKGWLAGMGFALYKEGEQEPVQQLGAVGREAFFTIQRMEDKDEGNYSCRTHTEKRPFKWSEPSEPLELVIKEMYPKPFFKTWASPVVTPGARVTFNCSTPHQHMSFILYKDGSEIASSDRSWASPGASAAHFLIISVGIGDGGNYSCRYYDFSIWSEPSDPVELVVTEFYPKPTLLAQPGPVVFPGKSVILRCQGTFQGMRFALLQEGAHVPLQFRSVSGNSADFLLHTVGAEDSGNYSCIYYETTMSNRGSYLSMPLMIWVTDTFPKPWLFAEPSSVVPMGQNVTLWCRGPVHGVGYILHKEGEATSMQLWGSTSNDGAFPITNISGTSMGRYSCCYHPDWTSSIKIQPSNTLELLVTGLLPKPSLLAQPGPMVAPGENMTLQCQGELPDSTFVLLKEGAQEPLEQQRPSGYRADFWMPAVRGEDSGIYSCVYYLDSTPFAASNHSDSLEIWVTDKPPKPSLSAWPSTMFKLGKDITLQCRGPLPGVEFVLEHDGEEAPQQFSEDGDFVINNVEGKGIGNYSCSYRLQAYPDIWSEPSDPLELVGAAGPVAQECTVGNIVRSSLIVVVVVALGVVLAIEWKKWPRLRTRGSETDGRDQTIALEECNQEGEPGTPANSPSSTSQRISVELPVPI
# B1: WM-A1-3389 antibody (antibody, human IgG1, kappa, V domains shown)
# VH: QVQLVQSGAEVKRPGSSVKVSCKASGGTFSTYAISWVRQAPGQGLEWMGRIIPFVGTVDYAQKFQDRVTITADKSTNTAYMELSSLRSEDTAVYYCVRDGGRSYFDSWGPGILVTVSS
# VL: QFVLTQPPSVSAAPGQDVIISCSGNTSNIGSNLVSWFQQFPETAPKLLIYDNHKRPSGISDRFSGTKSGTSASLAISGLQSEDEADYYCVAWDDSLNGYVFGTGTKVTVLR
# notes: Human antibody from a phage library, converted to whole IgG; also called anti-IGSF1 antibody
# Biological target: T1, IGSF1 overexpressed on cells (NCI-H292 …)
# Assay: flow cytometry on NCI-H292 IGSF1 O/E cells, FITC anti-human IgG detection
# Description: Specifically, the medium of NCI-H292 IGSF1 O/E cells and NCI-H292 MOCK cells was removed, washed once with PBS, and then treated with 2 ml of 0.25% trypsin-EDTA, and the cells were isolated. The isolated cells were diluted with 8 ml of PBS (hereinafter referred to as FACS buffer) containing 2% FBS and 0.05% sodium azide, and then the supernatant was removed by centrifugation at 1,200 rpm for 1 minute. Then, the cells were resuspended in FACS buffer to 1×10⁵ cells/ml. Thereafter, 1 ml of each was dispensed in a FACS tube, and the supernatant was removed by centrifugation at 1,200 rpm for 1 minute.
# After the reaction was completed, 1 ml of FACS buffer was added to each tube, and the supernatant was removed by centrifugation at 1,200 rpm for 1 minute. This process was performed a total of two times. […]
# Finally, after removal of the supernatant, the remaining pellet was resuspended in 200 μl of FACS buffer and analyzed by FACS. For FACS analysis, FITC fluorescence value labeled in each cell was measured using a BD LSRFortessa™ flow cytometer, and then the results were analyzed using a FlowJo software, and EC50 value was calculated using a sigma plot program. […]
binder,measurement,value
B1,EC50,~69 nM
